Experimental data taken from paper PMC11772769, “Selective cargo and membrane recognition by SNX17 regulates its interaction with Retriever” (EMBO Reports, 2024).
Residue numbers refer to the chain shown, from its start. Where no end group is shown, it is not given here. The star is where a group is joined. 5FAM = O=C1OC2(c3ccc(O)cc3Oc3cc(O)ccc32)c2ccc(C(=O)*)cc21

T1: MBP-SNX17 (full-length, wild-type) (UniProt Q15036 1-470)
T1 construct: also called MBP-SNX17FL; WT; not shown: MBP, N-terminal, kept
T1 sequence (looked up): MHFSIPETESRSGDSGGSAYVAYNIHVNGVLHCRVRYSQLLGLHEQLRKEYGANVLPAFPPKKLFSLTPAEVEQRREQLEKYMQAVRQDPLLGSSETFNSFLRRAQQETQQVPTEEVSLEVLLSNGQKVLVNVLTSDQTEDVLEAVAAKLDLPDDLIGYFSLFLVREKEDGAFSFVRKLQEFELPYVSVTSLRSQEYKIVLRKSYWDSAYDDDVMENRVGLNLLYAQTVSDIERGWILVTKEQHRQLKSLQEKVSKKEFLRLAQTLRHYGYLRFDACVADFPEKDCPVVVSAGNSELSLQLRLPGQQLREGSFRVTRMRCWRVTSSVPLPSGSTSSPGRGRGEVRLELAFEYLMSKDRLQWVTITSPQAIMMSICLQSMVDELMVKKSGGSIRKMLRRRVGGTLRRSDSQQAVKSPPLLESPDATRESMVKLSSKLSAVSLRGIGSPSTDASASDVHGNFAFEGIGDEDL

T2: MBP-SNX17 L470G (UniProt Q15036 1-470, L470G)
T2 construct: not shown: MBP, N-terminal, kept
T2 sequence (looked up): T1 sequence (looked up) with L470G

T3: MBP-SNX17 N459A + F462A (UniProt Q15036 1-470, N459A | F462A)
T3 construct: not shown: MBP, N-terminal, kept
T3 sequence (looked up): T1 sequence (looked up) with N459A, F462A

B1: GST-LRP1ICD (domain or fragment, UniProt Q07954 4444-4544, looked up)
chain: YKRRVQGAKGFQHQRMTNGAMNVEIGNPTYKMYEGGEPDDVGGLLDADFALDPDKPTNFTNPVYATLYMGGHGSRHSLASTDEKRELLGRGPEDEIGDPLA
notes: not shown: GST, N-terminal, kept
B2: SNX17_(FERM-CT) (amino acids 109-470) (domain or fragment)
chain: TQQVPTEEVSLEVLLSNGQKVLVNVLTSDQTEDVLEAVAAKLDLPDDLIGYFSLFLVREKEDGAFSFVRKLQEFELPYVSVTSLRSQEYKIVLRKSYWDSAYDDDVMENRVGLNLLYAQTVSDIERGWILVTKEQHRQLKSLQEKVSKKEFLRLAQTLRHYGYLRFDACVADFPEKDCPVVVSAGNSELSLQLRLPGQQLREGSFRVTRMRCWRVTSSVPLPSGSTSSPGRGRGEVRLELAFEYLMSKDRLQWVTITSPQAIMMSICLQSMVDELMVKKSGGSIRKMLRRRVGGTLRRSDSQQAVKSPPLLESPDATRESMVKLSSKLSAVSLRGIGSPSTDASASDVHGNFAFEGIGDEDL
B3: MBP-SNX17 W321A (natural protein)
chain: T1 sequence (looked up) with W321A
notes: not shown: MBP, N-terminal, kept
B4: MBP-SNX17 V380D (natural protein)
chain: T1 sequence (looked up) with V380D
notes: as for B3
B5: MBP-SNX17 H457A (natural protein)
chain: T1 sequence (looked up) with H457A
notes: as for B3
B6: Peptide ITGB1_(P-14mer) (peptide)
peptide: 5FAM-KWDTGENPIYKSAV
notes: also called ITGB1 membrane-proximal site; source: synthetic peptide (GenScript)
B7: Peptide ITGB1_(D-13mer) (peptide)
peptide: 5FAM-AVTTVVNPKYEGK
notes: also called ITGB1 distal site; source: synthetic peptide (GenScript)

How the values were obtained:
Conditions in all cases: both partners purified
[1] = biological target: T1, MBP-SNX17 (full-length, wild-type); experiment: pull-down
[2] = biological target: T4, Retriever complex (UniProt O14972 1-297; Q9UBQ0 1-182; Q7Z3J2 1-963); experiment: pull-down; GST pull-down: GST-L2FBR on glutathione agarose, Retriever together with SNX17PX, SNX17 FERM-CT or MBP-SNX17FL; VPS35L band quantified; Coomassie
[3] = biological target: T2, MBP-SNX17 L470G; experiment: fluorescence polarisation
[4] = biological target: T3, MBP-SNX17 N459A + F462A; experiment: fluorescence polarisation
[5] = biological target: B2; experiment: fluorescence polarisation
[6] = biological target: B5; experiment: fluorescence polarisation
[7] = biological target: T4, Retriever complex; experiment: pull-down

B1: binds [1].

DPAFVTTPTKLITYDNPAYEGIDVDNTLYF (domain or fragment, not shown: GST, N-terminal, kept) [GST-L2FBR]: binds [1].

B2: binds [2].

In the case of 5FAM-MNVEIGNPTYKMYE (source: synthetic peptide (GenScript)) [Peptide LRP1_(14mer)], the binding result [3] is reported as “binds”, the binding result [4] is reported as “binds” and the Kd [5] is reported as 2.2 µM. 5FAM-MNVEIGNPTYKMYE (source: synthetic peptide (GenScript)) [Peptide LRP1_(14mer)]: binds [6].

In the case of 5FAM-KLITYDNPAYEGID (source: synthetic peptide (GenScript)) [Peptide L2_(14mer)], the binding result [4] is reported as “binds” and the Kd [5] is reported as 0.6 µM.

B3: binds [7].

B4: binds [7].

B5: binds [7].

For 5FAM-QQNGYENPTYKFFE (source: synthetic peptide (GenScript)) [Peptide APP_(14mer)], the Kd [5] was 19 µM.

B6 showed a Kd [5] of 72 µM.

B7 gave a Kd [5] of 125 µM.
